In one assay the target is T1, HLA-B*0702 (human).
T1 construct: also called HLA-B7
Put plainly: HLA-B7 eluate MS; AML1; 3 means 6-25 copies/cell.

Assay [1] deals with T2, HLA-A*0201 (human).
T2 construct: also called HLA-A2
Put plainly: MS of HLA-A*0201 (BB7.2) eluate; cultured melanocytes; +++ means 50-500 copies/cell.

For assay [2], the target named is T2, HLA-A*0201. The assay can be described thus: HLA-A2 eluate MS; CLL2; 1 means <1 copy/cell.
In assay [3] the target is T2, HLA-A*0201. Put plainly: not described.
The target of assay [4] is T3, HLA B*0702 (human).
T3 construct: Class I MHC molecule of the cells from which the associated phosphopeptides were detected; also called HLA-B7
Put plainly: MS of peptides eluted from HLA; L/M column: L/M.

In assay [5] the target is T2, HLA-A*0201. The assay can be described thus: HLA-A2 binding affinity.
The target of assay [6] is T2, HLA-A*0201. The assay can be described thus: competition binding assay on purified HLA-A*0201.
Assay [7] concerns the target T2, HLA-A*0201. Put plainly: competition with iodinated [..] for purified HLA-A*0201 plus β2M, capture on W6/32 plates.
Assay [8] deals with T3, HLA B*0702. The assay can be described thus: MS of peptides eluted from HLA; L/M column: M.
In assay [9] the target is T3, HLA B*0702. The assay can be described thus: MS of peptides eluted from HLA; L/M column: empty.
In assay [10] the target is T2, HLA-A*0201. The assay can be described thus: HLA-A2 eluate MS; CLL4; 1 means <1 copy/cell.
In assay [11] the target is T2, HLA-A*0201. Put plainly: HLA-A2 binding affinity, method not described.

The text below walks through data of patent publication US20150224182A1 (UNIVERSITY OF VIRGINIA PATENT FOUNDATION, published 2015).

Usually IC50 stands for the concentration needed to halve the response being measured.

Non-standard residues stand in square brackets, D forms with d. No end group written: not given here. pT = C[C@@H](OP(=O)(O)O)[C@H](N)C(=O)O; pS = N[C@@H](COP(=O)(O)O)C(=O)O

B1: GFI1 phosphopeptide QPRsPGPDYSL (peptide)
peptide: QPR[pS]PGPDYSL
For the molecule B1, in the assay with HLA-B*0702, the binding result was “binds”.

B2: Heat shock protein 27 (HSP27) phosphopeptide RQLpSSGVSEI (peptide)
peptide: RQL[pS]SGVSEI
notes: also called HSPB1
Turning to B2, the binding result with HLA-A*0201 [1] is “binds”.

B3: NCOR2 phosphopeptide KAKsPAPGL (peptide)
peptide: KAK[pS]PAPGL
Regarding B3, the binding result with HLA-A*0201 [2] is “binds”.

B4: IRS2 phosphopeptide RVAsPTSGVK (peptide)
peptide: RVA[pS]PTSGVK
notes: also called RVAk
B4: in the assay with HLA-A*0201 [3], the binding result was “no binding”.

B5: SPRRsRSISL (peptide)
peptide: SPRR[pS]RSISL
On to B5, for which the binding result in the assay with HLA B*0702 [4] is on record as “binds”.

B6: IRS2 phosphopeptide RVApSPTSGVKR (peptide)
peptide: RVA[pS]PTSGVKR
As to B6, the binding result with HLA-A*0201 [3] is “no binding”.

B7: pS33-βcat(V)30 (YLDsGIHSGV) (peptide)
peptide: YLD[pS]GIHSGV
notes: also called pS33-βcatenin30-39(V); modified phosphopeptide
On to B7, for which, in the assay with HLA-A*0201 [5], the “fold enhancement of HLA-A2 binding affinity over pS33-βcatenin30-39” value is about 10 fold. In the assay with HLA-A*0201 [6], the “fold higher HLA-A*0201 binding affinity than pS33-βcat30” value was 8 fold. Also, the IC50 in the assay with HLA-A*0201 [7] was found to be 0.041 µg/mL.

B8: ORF 17, chromosome 2 phosphopeptide RLSpSPLHFV (peptide)
peptide: RLS[pS]PLHFV
notes: also called Protein FAM134A
As to B8, in the assay with HLA-A*0201 [1], the binding result is “binds”.

B9: RPAsPAAKL (peptide)
peptide: RPA[pS]PAAKL
On to B9, for which the binding result in the assay with HLA B*0702 [8] was “binds”.

B10: RPVsPFQEL (peptide)
peptide: RPV[pS]PFQEL
For B10, in the assay with HLA B*0702 [9], the binding result is “binds”.

B11: N4BP2 phosphopeptide KMDsFLDMQL (peptide)
peptide: KMD[pS]FLDMQL
As to B11, in the assay with HLA-A*0201 [10], the binding result is reported as “binds”.

B12: BCAR3 phosphopeptide IMDRtPEKL (peptide)
peptide: IMDR[pT]PEKL
notes: also called natural BCAR3pT130
Take B12: in the assay with HLA-A*0201 [11], the binding result is recorded as “binds”.
